Molecular target: truncated neck domain fragment of DC-SIGNR (neck lacking the N-terminal non-repeat region and the first half of the first repeat unit) (human)
Assay: SEC; gel filtration of the purified truncated fragment; profile superimposed on that of the previously described DC-SIGN extracellular domain

In the case of “truncated neck domain fragment of DC-SIGNR (neck lacking the N-terminal non-repeat region and the first half of the first repeat unit) (domain or fragment)”, the stoichiometry N is reported as 4.

— paper PMC2971551
